Legend:
hFcγR 2b (human) = hFcγR 2b (human) (UniProt P31994); assay: BLI; biotinylated avi-tagged receptor-monomeric Fc fusion on streptavidin biosensor, antibody titrated as analyte; 1:1 global fit
[1] = biological target: hCD64 P2 mFc.67 N297A LALA-PG avi (human) (UniProt P12314); assay: as above
[2] = biological target: hFcRN mFc.67 N297A IHH avi biotin (human) (UniProt P55899); assay: BLI at pH 7.46 (row 'hFcRN pH 7.46'); biotinylated hFcRN-monomeric Fc fusion on streptavidin biosensor, antibody titrated as analyte; 1:1 global fit
[3] = biological target: hCD70 Biotin E131664-01 (human) (UniProt P32970); assay: BLI; antibody as probe on AHC (anti-Fc) biosensor, hCD70 Biotin titrated as analyte; '37 C' printed with the probe; 1:1 global fit
[4] = biological target: hFcRN mFc.67 N297A IHH avi biotin (human) (UniProt P55899); assay: BLI at pH 6.09 (row 'hFcRN pH 6.09'); biotinylated hFcRN-monomeric Fc fusion on streptavidin biosensor, antibody titrated as analyte; 1:1 global fit
[5] = biological target: high affinity human FcγRIIIa receptor (158V) overexpressed on CHO cells (human) (UniProt P08637); assay: flow cytometry on CHO cells overexpressing human FcγRIIIa 158V (CHO/hCD16); detection with anti-human IgG-PE
[6] = biological target: hFcgR 2a R131 mFc.67 N297A LALAPG avi biotin (human) (UniProt P12318); assay: BLI; biotinylated avi-tagged receptor-monomeric Fc fusion on streptavidin biosensor, antibody titrated as analyte; 1:1 global fit
[7] = biological target: hFcgR 2a H131 mFc.67 N297A LALAPG avi biotin (human) (UniProt P12318); assay: as above
[8] = biological target: hFcgR 3a F158 mFc.67 N297A LALAPG avi biotin (human) (UniProt P08637); assay: as above
[9] = biological target: hFcgR 3a V158 mFc.67 N297A LALAPG avi biotin (human) (UniProt P08637); assay: BLI; biotinylated FcγR fusion on streptavidin biosensor, antibody titrated; 1:1 global fit
[10] = biological target: hCD70 Biotin E131664-01 (human) (UniProt P32970); assay: BLI; antibody as probe on AHC (anti-Fc) biosensor, hCD70 Biotin titrated as analyte; '37 C' printed with the probe; 1:1 global fit [Cont.]
[11] = biological target: cynomolgus FcγRIIIa receptor overexpressed on CHO cells (cynomolgus) (UniProt Q8SPW2); assay: flow cytometry on CHO cells overexpressing cynomolgus FcγRIIIa (CHO/cynoCD16); detection with anti-human IgG-PE
Sequence of cynomolgus FcγRIIIa receptor overexpressed on CHO cells (cynomolgus) (Q8SPW2 17-254): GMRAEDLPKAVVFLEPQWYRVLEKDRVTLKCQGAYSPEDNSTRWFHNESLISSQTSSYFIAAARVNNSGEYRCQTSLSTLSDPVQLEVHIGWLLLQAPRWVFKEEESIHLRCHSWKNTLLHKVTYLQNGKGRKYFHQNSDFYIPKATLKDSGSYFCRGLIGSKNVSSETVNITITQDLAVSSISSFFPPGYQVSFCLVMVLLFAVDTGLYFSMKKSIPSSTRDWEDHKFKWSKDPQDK

Sequence of hCD70 Biotin E131664-01 (human) (P32970 39-193 limits assumed): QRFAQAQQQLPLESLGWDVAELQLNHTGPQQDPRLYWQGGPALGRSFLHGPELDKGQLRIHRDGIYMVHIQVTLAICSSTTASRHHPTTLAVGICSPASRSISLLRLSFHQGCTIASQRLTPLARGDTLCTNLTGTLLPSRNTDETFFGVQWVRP
Sequence of hFcγR 2b (human) (P31994 43-217): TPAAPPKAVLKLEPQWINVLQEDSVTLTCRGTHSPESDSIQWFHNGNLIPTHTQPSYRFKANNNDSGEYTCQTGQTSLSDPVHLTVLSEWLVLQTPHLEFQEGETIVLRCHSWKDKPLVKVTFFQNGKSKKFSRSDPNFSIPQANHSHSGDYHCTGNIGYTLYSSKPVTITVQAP
Sequence of high affinity human FcγRIIIa receptor (158V) overexpressed on CHO cells (human) (P08637 17-254 F176V): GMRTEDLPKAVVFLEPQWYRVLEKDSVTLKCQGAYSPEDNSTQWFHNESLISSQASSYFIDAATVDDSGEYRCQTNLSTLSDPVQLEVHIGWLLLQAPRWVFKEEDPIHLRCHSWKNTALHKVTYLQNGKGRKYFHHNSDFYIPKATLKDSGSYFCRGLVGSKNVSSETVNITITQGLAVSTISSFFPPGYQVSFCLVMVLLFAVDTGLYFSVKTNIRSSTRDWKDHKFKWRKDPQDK

Kd (hFcγR 2b (human))	Kd [1]	Kd [2]	Kd [3]	Kd [4]	EC50 (read off the curve) [5]	kon (hFcγR 2b (human))	Kd [6]	kon [6]	kon [1]	Kd [7]	kon [7]	Kd [8]	kon [8]	kon [2]	Kd [9]	kon [4]	kon [10]	EC50 (read off the curve) [11]	Binder
27000 nM	0.42 nM	16700 nM	0.24 nM	19 nM															SEA-CD70 (nonfucosylated h1F6) (antibody, INN chains, looked up, V domains shown, part only, nonfucosylated afucosylated) VH: QVQLVQSGAEVKKPGASVKVSCKASGYTFTNYGMNWVRQAPGQGLKWMGWINTYTGEPTYADAFKGRVTMTRDTSISTAYMELSRLRSDDTAVYYCARDYGDYGMDYWGQGTTVTVSS VL: DIVMTQSPDSLAVSLGERATINCRASKSVSTSGYSFMHWYQQKPGQPPKLLIYLASNLESGVPDRFSGSGSGTDFTLTISSLQAEDVAVYYCQHSREVPWTFGQGTKVEIK
25000 nM	0.66 nM	15000 nM	0.23 nM	17 nM	1 µg/mL	26000 M⁻¹ s⁻¹	4500 nM	77000 M⁻¹ s⁻¹	770000 M⁻¹ s⁻¹	2600 nM	100000 M⁻¹ s⁻¹	5300 nM	27000 M⁻¹ s⁻¹	42000 M⁻¹ s⁻¹	860 nM	720000 M⁻¹ s⁻¹	270000 M⁻¹ s⁻¹	1 µg/mL	SGN-70 (fucosylated h1F6) (antibody, INN chains, looked up, V domains shown, part only) VH: QVQLVQSGAEVKKPGASVKVSCKASGYTFTNYGMNWVRQAPGQGLKWMGWINTYTGEPTYADAFKGRVTMTRDTSISTAYMELSRLRSDDTAVYYCARDYGDYGMDYWGQGTTVTVSS VL: DIVMTQSPDSLAVSLGERATINCRASKSVSTSGYSFMHWYQQKPGQPPKLLIYLASNLESGVPDRFSGSGSGTDFTLTISSLQAEDVAVYYCQHSREVPWTFGQGTKVEIK
